Reference: the supplement of paper PMC12042874
± gives the uncertainty stated by the source.

Assay: amyloid nucleation score (Sup35N fusion, yeast selection) (log enrichment); library NNK2; higher = more nucleation; inactive = no reads after selection
Summary of the method: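 Peptides of 20 random codons fused to Sup35N were expressed in psi-negative yeast, induced 24 hours with 100 μM copper sulfate, then grown 7 days at 30°C on medium lacking adenine and uracil. Input and output plasmid inserts were Illumina-sequenced. Nucleation score is the DiMSum log enrichment of output over input reads, centred on the mode score of non-aggregating sequences, excluding sequences with under 100 input reads. Random libraries had three technical output replicates.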

Row | Substance | amyloid nucleation score
1 | HEYVAALGWMAEGLSKFLKR | 0.579 ± 0.8
2 | YMYGVNNASSF | 5.79 ± 0.054
3 | FVHVPPILGAAVTVRAASPK | 0.284 ± 1.1
4 | ACDVNWLMNTIHQNNCCFAH | -0.716 ± 1.1
5 | DLYWSMLLYVMSRVYE | 0.249 ± 0.64
6 | RTAINESCQDEMG | 5.44 ± 0.073
7 | TGWSGRGMVKSDPYRACGGD | -0.11 ± 0.35
8 | GSLMRTFHILSIAHSTSWCM | 0.381 ± 0.19
9 | QRDDVISRCVYHYFKVVPGA | -0.183 ± 0.55
10 | PCCRGRRSSLGRAIKGAEAK | 0.009 ± 0.23
11 | FPGRFRGKSLEKRMVM | 0.721 ± 0.46
12 | FSVRLMAVRQGRLTAVGKSD | 0.331 ± 0.42
13 | KYIYVYNSIGVP | -0.277 ± 1
14 | YSTTDHKWSRNLGIIMVVMW | 0.185 ± 0.48
15 | FINSHFHYEECPIMGKQSVL | 1.63 ± 0.53
16 | VLLSGLY | inactive
17 | VCSPIG | 0.063 ± 0.45
18 | AESWVNYRGRDV | 0.472 ± 0.8
19 | QNFNILIGRGDVY | 1.6 ± 0.23
20 | IDQLLGLDRSCCVNL | 0.387 ± 0.8
21 | GYHDRLSPSQTLPPTRNVLC | 0.312 ± 0.8
22 | CNRVHYFFCFSCLWMFVFID | -2.07 ± 1.1

Row | Substance | amyloid nucleation score
23 | SVGEFSVRWAACGDLWCW | 0.725 ± 0.2
24 | RGYVRLSHTGTTRHHP | inactive
25 | DGCDNYDSRESKTLFMRMMW | 1.11 ± 0.43
26 | RVIHKFLYK | 6.288 ± 0.06
27 | DSNMRMIA | 0.448 ± 0.6
28 | NGTCLYAYIMIRLISNEFSR | -0.417 ± 0.42
29 | TICWHGFNR | 0.119 ± 0.76
30 | HCLVIFNEIYRL | 7.137 ± 0.071
31 | IRPSLGRR | 1.79 ± 0.26
32 | SYVQMTDT | -0.146 ± 1
33 | IYRTYYGINACLINLCMFDN | 7.55 ± 0.078
34 | KFSKGSPGWWHQGSLCMVAM | 1.51 ± 0.58
35 | RHTSNTIIDELFLDSMGWHN | 9.016 ± 0.05
36 | MVCLLSFPHPCGINLMVARN | -0.147 ± 0.37
37 | MCTDFQC | 0.475 ± 0.27
38 | QVIFI | inactive
39 | ARMRFKRRKCCNAIWVRSSV | 0.398 ± 0.3
40 | VSYVYYSM | -0.242 ± 1.1
41 | LYENWPCFT | -0.199 ± 0.53
42 | LYVYGGSLNPGLVMFVPCWK | -0.774 ± 0.76
43 | TADISLYLRHST | 6.442 ± 0.049
44 | TRFLPDAY | -0.903 ± 0.32

Row | Substance | amyloid nucleation score
45 | TWNSANFFIKLRQSVFYLSR | -1.46 ± 1.1
46 | EWLAVYVYLHQDGLNNFRS | -0.784 ± 0.4
47 | TTVSYISERFTYLGSL | 3.84 ± 0.12
48 | AIITLYSNHKLYLWALLLDA | -0.47 ± 1.1
49 | WLYSIDYNFLKRVIGYCYRN | inactive
50 | TLCVGVFAHTAMRCRECHAA | 5.479 ± 0.043
51 | LVRMPRGTSFGRCNVCV | inactive
52 | SARAICMAVLESSESDHNGV | -0.299 ± 0.36
53 | YVLIVRYILGSSLRELAYGR | -0.38 ± 0.3
54 | MLLPLNYECGVQYS | -0.179 ± 0.37
55 | SLLLMDYFLYYYLSVEKRQR | inactive
56 | FGVNDLYSDLW | -0.68 ± 0.25
57 | KHCQLLSVSAECDRPGLWKE | 0.75 ± 0.17
58 | RVKRRMSFVVAVAQVMGLVG | 0.475 ± 0.23
59 | ATRGHIWDCSFGADYQCIPS | 5.97 ± 0.063
60 | QVLIIPLWKNGLRTIIRWL | 0.106 ± 1
61 | VNMLEQKGRMSDETPCTATP | 0.107 ± 0.79
62 | QAHVQILYKL | 5.95 ± 0.054
63 | VSQSDMDLHWLVYRVYWYVF | -0.893 ± 0.44
64 | SLIDLLPCFFICRGRCFPSV | -0.672 ± 0.37
65 | RYNDAFSVCRMDEITAWIWC | 2.67 ± 0.085
66 | MEDHF | 3.69 ± 0.11

Row | Substance | amyloid nucleation score
67 | RVTFNFRGMYKLIIMGGVPP | 6.49 ± 0.085
68 | LANKAYYVCLV | 0.022 ± 0.62
69 | FGNDPSGCVNQAYYHRCFLD | -0.959 ± 0.78
70 | SLDGISHHSTDVNLVLNCYR | 5.222 ± 0.045
71 | SSATFYT | 1.43 ± 0.26
72 | ESFVRVLSFFCVSWYGSMVR | 1.75 ± 0.24
73 | PLILGGGLLWIVC | 0.201 ± 0.74
74 | IIYYIMVTFWYSVYQPFRSF | -0.081 ± 0.79
75 | LDMGCNRPEVYGNKCAMVSW | 0.75 ± 0.21
76 | LMFLGWASRNLVDKSTFKWI | -0.843 ± 0.79
77 | PRGAPNVFDFTLNFSLKQVA | -0.551 ± 0.35
78 | LINFSFSDTAVFYVREGWEH | 6.846 ± 0.039
79 | VKVQKINGGCVGFDLTWLCN | 8.863 ± 0.034
80 | MSNARRFSMNDSYNIVLCWE | -0.111 ± 0.63
81 | GGDSECGYNGVFVGYAVFWC | 0.128 ± 0.29
82 | IWSCRGQLGSSFTPSGNCTG | 1.05 ± 0.37
83 | SFPYNHFYMDYMPVRAPLVV | -0.153 ± 1.1
84 | VWDLMLKKAFTNSSNCYSVA | 1.19 ± 0.19
85 | DSNDRWVW | -0.409 ± 0.76
86 | FKDTWQSPGAVERKGMRTSV | 0.365 ± 0.22
